Laboratory results from patent publication US20060233822A1 (YANG SHENG TANG, published 2006).

What was measured:
7-peptide QPATWNT = assay: phage display panning on coated MAb; 1 clone
7-peptide TNLRLDS = assay: phage display panning on coated MAb; 1 clone
7-peptide GGWGPFA = assay: phage display panning on coated MAb; 1 clone
7-peptide MLWGPSD = assay: phage display panning on coated MAb; 1 clone
7-peptide ALWGPTS = assay: phage display panning on coated MAb; 1 clone
NE2 mutant 601LI = molecular target: T1, NE2 mutant 601LI (hepatitis E virus, UniProt P29326 394-600); assay: WB
T1 chain: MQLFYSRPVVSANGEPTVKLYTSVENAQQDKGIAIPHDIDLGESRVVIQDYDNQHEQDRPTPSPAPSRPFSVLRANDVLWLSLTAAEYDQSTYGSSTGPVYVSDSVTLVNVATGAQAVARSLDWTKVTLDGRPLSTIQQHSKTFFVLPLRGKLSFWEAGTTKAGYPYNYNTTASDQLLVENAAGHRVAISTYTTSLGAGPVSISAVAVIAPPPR

NE2 mutant 601LE = molecular target: T2, NE2 mutant 601LE (hepatitis E virus, UniProt P29326 394-600); assay: WB
T2 construct: position counted on HEV ORF2
T2 chain: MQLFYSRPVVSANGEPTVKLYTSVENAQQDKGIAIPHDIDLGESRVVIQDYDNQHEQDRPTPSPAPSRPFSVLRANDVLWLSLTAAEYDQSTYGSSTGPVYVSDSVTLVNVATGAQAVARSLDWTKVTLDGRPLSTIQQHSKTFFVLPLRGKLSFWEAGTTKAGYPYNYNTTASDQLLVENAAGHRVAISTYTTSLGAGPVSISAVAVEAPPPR

NE2 mutant 601LG = molecular target: T3, NE2 mutant 601LG (hepatitis E virus, UniProt P29326 394-600); assay: WB
T3 construct: position counted on HEV ORF2
T3 chain: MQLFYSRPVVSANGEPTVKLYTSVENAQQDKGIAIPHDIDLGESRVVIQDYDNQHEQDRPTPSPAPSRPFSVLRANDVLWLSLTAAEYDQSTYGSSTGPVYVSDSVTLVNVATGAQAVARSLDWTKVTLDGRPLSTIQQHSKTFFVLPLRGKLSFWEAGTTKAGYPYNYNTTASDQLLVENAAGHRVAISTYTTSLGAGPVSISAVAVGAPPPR

NE2 mutant 601LC = molecular target: T4, NE2 mutant 601LC (hepatitis E virus, UniProt P29326 394-600); assay: WB
T4 construct: position counted on HEV ORF2
T4 chain: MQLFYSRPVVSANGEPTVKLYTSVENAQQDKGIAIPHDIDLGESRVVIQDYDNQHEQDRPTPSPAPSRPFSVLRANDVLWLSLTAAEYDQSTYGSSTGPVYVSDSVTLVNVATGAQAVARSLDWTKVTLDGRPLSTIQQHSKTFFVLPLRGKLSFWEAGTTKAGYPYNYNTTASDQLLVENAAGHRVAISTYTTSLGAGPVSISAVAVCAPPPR

polypeptide 239 = molecular target: T5, polypeptide 239 (hepatitis E virus, UniProt P29326 368-603); assay: Western blot
T5 sequence: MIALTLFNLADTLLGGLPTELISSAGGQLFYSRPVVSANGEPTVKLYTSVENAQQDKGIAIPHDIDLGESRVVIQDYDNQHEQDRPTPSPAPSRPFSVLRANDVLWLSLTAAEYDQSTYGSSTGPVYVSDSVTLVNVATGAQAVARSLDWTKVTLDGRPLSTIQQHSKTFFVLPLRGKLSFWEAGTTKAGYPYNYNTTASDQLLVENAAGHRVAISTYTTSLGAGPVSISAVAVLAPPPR

Measured: binding result

B1: monoclonal antibody 16D7 (antibody, V domains shown)
VH: EVQLQQSGPELVKPGASVKMSCKASGYKFTSYVMHWVKQKPGQGLEWIGYINPSNDNIKYNEKFKGKAILTLDKSSSTAYMAFSSLTSEDSAVYYCATLTGVDYWGQGTTLTVSS
VL: DVVMTQTPLSLSVTIGQPASISCKSSQSLLYRNGKIYLNWLQQRPGQAPKHLMSQVSKLDPGIPDRFSGSGSETDFTLKISRVEAEDLGVYYCLQGTHYPYTFGGGTKLEIKR
notes: also called MAb 16D7; HRP-16D7
binds: all assays above
